Assay results from patent US20060140858A1, “Drug pre-targeting by means of bi-specific antibodies and hapten constructs comprising a carrier peptide and the active agent(s)” (Immunomedics, Inc., priority 2002, published 2006).

Test: Biodistribution of In-111 IMP 224 in BALB/c mice
Type: in vivo
Procedure: Kits were reconstituted with 400 μCi In-111 in 0.5 mL water.

Q: For COc1cccc2c1C(=O)c1c(O)c3c(c(O)c1C2=O)C[C@@](O)(C(CO)=NNc1ccc(C(=O)N[C@@H](CCCCNC(=O)CN(CCN(CCN(CC(=O)O)CC(=O)O)CC(=O)O)CC(=O)O)C(=O)N[C@@H](Cc2ccc(O)cc2)C(=O)N[C@@H](CCCCNC(=O)CN(CCN(CCN(CC(=O)O)CC(=O)O)CC(=O)O)CC(=O)O)C(N)=O)cc1)C[C@@H]3O[C@H]1C[C@H](N)[C@H](O)[C@H](C)O1 [IMP 224, Dox = N—NH—C6H4—CO-Lys(DTPA)-Tyr-Lys(DTPA)-NH2], which tissue uptake at 0.5 h (BALB/c, mouse, 20 uCi, total radioactivity, Blood, 30 min) is on record?
A: 1.44 ± 0.28 %ID/g

Q: And the tissue uptake at 1 h (BALB/c, mouse, 20 uCi, total radioactivity, Blood, 1 hr)?
A: 0.54 ± 0.12 %ID/g

Q: What about the tissue uptake at 2 h (BALB/c, mouse, 20 uCi, total radioactivity, Blood, 2 hr) of the same compound?
A: 0.12 ± 0.01 %ID/g

Q: What about the tissue uptake at 4 h (BALB/c, mouse, 20 uCi, total radioactivity, Blood, 4 hr) of the same compound?
A: 0.1 ± 0.01 %ID/g

Q: And the tissue uptake at 24 h (BALB/c, mouse, 20 uCi, total radioactivity, Blood, 24 hr)?
A: 0.02 %ID/g

Q: What about the tissue uptake at 0.5 h (BALB/c, mouse, 20 uCi, total radioactivity, Kidney, 30 min) of the same compound?
A: 8.45 ± 1.79 %ID/g

Q: What about the tissue uptake at 1 h (BALB/c, mouse, 20 uCi, total radioactivity, Kidney, 1 hr) of the same compound?
A: 5.36 ± 1.01 %ID/g

Q: What about the tissue uptake at 2 h (BALB/c, mouse, 20 uCi, total radioactivity, Kidney, 2 hr) of the same compound?
A: 3.75 ± 0.52 %ID/g

Q: And the tissue uptake at 4 h (BALB/c, mouse, 20 uCi, total radioactivity, Kidney, 4 hr)?
A: 4.03 ± 0.45 %ID/g

Q: And the tissue uptake at 24 h (BALB/c, mouse, 20 uCi, total radioactivity, Kidney, 24 hr)?
A: 2.12 ± 0.17 %ID/g

Q: And the tissue uptake at 0.5 h (BALB/c, mouse, 20 uCi, total radioactivity, Liver, 30 min)?
A: 0.57 ± 0.04 %ID/g

Q: And the tissue uptake at 1 h (BALB/c, mouse, 20 uCi, total radioactivity, Liver, 1 hr)?
A: 0.31 ± 0.03 %ID/g

Q: What about the tissue uptake at 2 h (BALB/c, mouse, 20 uCi, total radioactivity, Liver, 2 hr) of the same compound?
A: 0.17 ± 0.03 %ID/g

Q: What about the tissue uptake at 4 h (BALB/c, mouse, 20 uCi, total radioactivity, Liver, 4 hr) of the same compound?
A: 0.17 ± 0.01 %ID/g

Q: And the tissue uptake at 24 h (BALB/c, mouse, 20 uCi, total radioactivity, Liver, 24 hr)?
A: 0.13 ± 0.02 %ID/g

Q: What about the tissue uptake at 0.5 h (BALB/c, mouse, 20 uCi, total radioactivity, Lungs, 30 min) of the same compound?
A: 1.61 ± 0.34 %ID/g

Q: What about the tissue uptake at 1 h (BALB/c, mouse, 20 uCi, total radioactivity, Lungs, 1 hr) of the same compound?
A: 0.99 ± 0.26 %ID/g

Q: And the tissue uptake at 2 h (BALB/c, mouse, 20 uCi, total radioactivity, Lungs, 2 hr)?
A: 0.25 ± 0.02 %ID/g

Q: What about the tissue uptake at 4 h (BALB/c, mouse, 20 uCi, total radioactivity, Lungs, 4 hr) of the same compound?
A: 0.17 ± 0.02 %ID/g

Q: What about the tissue uptake at 24 h (BALB/c, mouse, 20 uCi, total radioactivity, Lungs, 24 hr) of the same compound?
A: 0.09 ± 0.02 %ID/g

Q: What about the tissue uptake at 0.5 h (BALB/c, mouse, 20 uCi, total radioactivity, Muscle, 30 min) of the same compound?
A: 0.51 ± 0.19 %ID/g

Q: And the tissue uptake at 1 h (BALB/c, mouse, 20 uCi, total radioactivity, Muscle, 1 hr)?
A: 0.21 ± 0.08 %ID/g

Q: What about the tissue uptake at 2 h (BALB/c, mouse, 20 uCi, total radioactivity, Muscle, 2 hr) of the same compound?
A: 0.03 ± 0.02 %ID/g

Q: And the tissue uptake at 4 h (BALB/c, mouse, 20 uCi, total radioactivity, Muscle, 4 hr)?
A: 0.02 %ID/g

Q: And the tissue uptake at 24 h (BALB/c, mouse, 20 uCi, total radioactivity, Muscle, 24 hr)?
A: 0.01 %ID/g

Q: What about the tissue uptake at 0.5 h (BALB/c, mouse, 20 uCi, total radioactivity, Spleen, 30 min) of the same compound?
A: 0.57 ± 0.18 %ID/g

Q: And the tissue uptake at 1 h (BALB/c, mouse, 20 uCi, total radioactivity, Spleen, 1 hr)?
A: 0.27 ± 0.06 %ID/g

Q: And the tissue uptake at 2 h (BALB/c, mouse, 20 uCi, total radioactivity, Spleen, 2 hr)?
A: 0.12 ± 0.01 %ID/g

Q: And the tissue uptake at 4 h (BALB/c, mouse, 20 uCi, total radioactivity, Spleen, 4 hr)?
A: 0.11 ± 0.01 %ID/g

Q: And the tissue uptake at 24 h (BALB/c, mouse, 20 uCi, total radioactivity, Spleen, 24 hr)?
A: 0.07 %ID/g

Q: And the tissue uptake at 0.5 h (BALB/c, mouse, 20 uCi, total radioactivity, Stomach, 30 min)?
A: 0.61 ± 0.07 %ID/g

Q: And the tissue uptake at 1 h (BALB/c, mouse, 20 uCi, total radioactivity, Stomach, 1 hr)?
A: 0.15 ± 0.07 %ID/g

Q: What about the tissue uptake at 2 h (BALB/c, mouse, 20 uCi, total radioactivity, Stomach, 2 hr) of the same compound?
A: 0.05 ± 0.01 %ID/g

Q: What about the tissue uptake at 4 h (BALB/c, mouse, 20 uCi, total radioactivity, Stomach, 4 hr) of the same compound?
A: 0.06 ± 0.02 %ID/g

Q: What about the tissue uptake at 24 h (BALB/c, mouse, 20 uCi, total radioactivity, Stomach, 24 hr) of the same compound?
A: 0.04 ± 0.02 %ID/g

Q: And the tissue uptake at 0.5 h (BALB/c, mouse, 20 uCi, total radioactivity, Tail, 30 min)?
A: 3.66 ± 0.43 %ID/g

Q: And the tissue uptake at 1 h (BALB/c, mouse, 20 uCi, total radioactivity, Tail, 1 hr)?
A: 1.9 ± 0.09 %ID/g

Q: What about the tissue uptake at 2 h (BALB/c, mouse, 20 uCi, total radioactivity, Tail, 2 hr) of the same compound?
A: 0.46 ± 0.09 %ID/g

Q: What about the tissue uptake at 4 h (BALB/c, mouse, 20 uCi, total radioactivity, Tail, 4 hr) of the same compound?
A: 0.24 ± 0.03 %ID/g

Q: And the tissue uptake at 24 h (BALB/c, mouse, 20 uCi, total radioactivity, Tail, 24 hr)?
A: 0.58 ± 0.22 %ID/g

Q: And the excreta dose per gram or mL at 2 h (BALB/c, mouse, 20 uCi, total radioactivity, Urine, 2 hr)?
A: 19.1 %ID/g

Q: What about the excreta dose per gram or mL at 4 h (BALB/c, mouse, 20 uCi, total radioactivity, Urine, 4 hr) of the same compound?
A: 1.72 ± 0.67 %ID/g

Q: What about the excreta dose per gram or mL at 24 h (BALB/c, mouse, 20 uCi, total radioactivity, Urine, 24 hr) of the same compound?
A: 0.42 ± 0.18 %ID/g

Q: What about the tissue uptake at 0.5 h (BALB/c, mouse, large intestine, 20 uCi, total radioactivity, Large Int., 30 min) of the same compound?
A: 0.59 ± 0.43 %ID/g

Q: And the tissue uptake at 1 h (BALB/c, mouse, large intestine, 20 uCi, total radioactivity, Large Int., 1 hr)?
A: 0.18 ± 0.04 %ID/g

Q: And the tissue uptake at 2 h (BALB/c, mouse, large intestine, 20 uCi, total radioactivity, Large Int., 2 hr)?
A: 0.38 ± 0.15 %ID/g

Q: And the tissue uptake at 4 h (BALB/c, mouse, large intestine, 20 uCi, total radioactivity, Large Int., 4 hr)?
A: 0.3 ± 0.06 %ID/g

Q: What about the tissue uptake at 24 h (BALB/c, mouse, large intestine, 20 uCi, total radioactivity, Large Int., 24 hr) of the same compound?
A: 0.08 ± 0.03 %ID/g

Q: And the tissue uptake at 0.5 h (BALB/c, mouse, small intestine, 20 uCi, total radioactivity, Small Int., 30 min)?
A: 0.72 ± 0.08 %ID/g

Q: And the tissue uptake at 1 h (BALB/c, mouse, small intestine, 20 uCi, total radioactivity, Small Int., 1 hr)?
A: 0.37 ± 0.19 %ID/g

Q: What about the tissue uptake at 2 h (BALB/c, mouse, small intestine, 20 uCi, total radioactivity, Small Int., 2 hr) of the same compound?
A: 0.09 ± 0.01 %ID/g

Q: And the tissue uptake at 4 h (BALB/c, mouse, small intestine, 20 uCi, total radioactivity, Small Int., 4 hr)?
A: 0.09 ± 0.03 %ID/g

Q: What about the tissue uptake at 24 h (BALB/c, mouse, small intestine, 20 uCi, total radioactivity, Small Int., 24 hr) of the same compound?
A: 0.05 ± 0.01 %ID/g

Q: What about the “% ID/g” value (Urine, 30 min) of the same compound?
A: 1553 % ID/g

Q: And the “% ID/g” value (Urine, 1 hr)?
A: 1400 ± 421 % ID/g
